In patent US20200040103A1 (Genentech, published 2020):
Substitutions are numbered along the chain they refer to.

T1: Recombinant human KLK5 residues I67-S293 (SEQ ID NO:328) (human, UniProt Q9Y337 67-293, lysine residues methylated in the 10C5 and 9H5 complexes that gave crystals)
T1 construct: Expressed in Sf9 cells as ubiquitin fusion; ubiquitin removed with Enterokinase; also called Human KLK5 Crystal Structure Experiments
T1 sequence: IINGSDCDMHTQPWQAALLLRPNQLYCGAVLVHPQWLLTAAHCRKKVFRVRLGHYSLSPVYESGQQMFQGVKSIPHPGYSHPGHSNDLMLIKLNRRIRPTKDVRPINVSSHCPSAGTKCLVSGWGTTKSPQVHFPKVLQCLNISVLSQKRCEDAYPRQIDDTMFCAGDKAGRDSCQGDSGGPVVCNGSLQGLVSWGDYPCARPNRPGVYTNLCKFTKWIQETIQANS

B1: 14E12 (antibody, V domains shown)
VH: EVQLVESGGGLVRPGRSLRLSCAASGFTFSDYYMAWVRQAPTKGLEWVASISYDGDTTYYRDSVKGRFTISRDNARSSLYLQMDSLRSDDTANYFCTTDGTIPAGSWFAYWGQGTLVTVSS
VL: DIQMTQSPASLSASLGETVTIECLASKNIYRNLAWYQQKPGKSPQFLISDASRLQDGVPSRFTGSDSGSQYSLKINSLQSEDVATYFCQQYHDYPYTFGAGTKLELK
B2: 8E11 (antibody, V domains shown)
VH: QEQLEESGGDLVKPEGSLTLTCTASGFSFSSSYWICWVRQAPGKGLEWIACVYGLDVNIYYASWTKGRFTISKTSSTTVTLQMTSLTAADTATYFCARGGGSADFGFDLWGPGTLVTVSS
VL: DVVMTQTASPVSAAVGGTVTIKCQASENIYSLLAWYQQKPGQPPKVLIYDASDLASGVPSRFKGSGSGTQFTLTISDLECADAATYYCQATAYGSSGNAFGGGTEVVVK
B3: 8G10 (antibody, V domains shown)
VH: QSLEESGGDLVKPEGSLTLTCTASGFSFSTSYWICWVRQAPGKGLEWIACVYGLDVNIYYASWTEGRFTISKTSSTTVTLQVTSLTAADTATYFCARGGGSADFGFDLWGPGTLVTVSS
VL: B2 VL with A8P, S9A, P10S, A13E, A14P
B4: 14C8 (antibody, V domains shown)
VH: EVQLVESGGGLVQPGRSLKLSCTASGFTFSDYNMAWVRQAPKGGLEWVTTISYDAGRTYYRDSVKGRFTISRDNAKRTLSLQMDSLRSEDTATYYCATGIFNYGTDYFDYWGQGVMVTVSS
VL: DIQMTQSPASLSASLGETVTIQCRASEDIYSGLAWYQQKPGKSPQLLIYGATTLHDGVPSRFSGSGSGTQYSLKISSMHSEDEGIYFCHQGLSFPYTFGAGTKLELK
B5: 3-3F5 Fab (Fab, V domains shown)
VH: EVQLLESGGGLVQPGGSLRLSCAVSGFSLNDYGVSWVRQAPGKGLEWVGAIGSSGVAWYANFAKGRFTISRDNSKNTLYLQMNSLRAEDTAVYYCARDRDYGYRADDATSGMDLWGRGTLVTVSS
VL: AIRMTQSPSSFSASTGDRVTITCQASESIGNALAWYQQKPGKAPKLLIYDASDLASGVPSRFSGSGSGTDFTLTISSLQPEDFATYYCQQGDSHNNVDNIFGGGTKVEIKR
notes: Fab used for crystallization with human KLK5; also called 3F5.5 Fab; Fab 3-3F5 Humanized
B6: 9H5 Fab (Fab, V domains shown)
VH: EVQLVESGGGLIQPGGSLRLSCAASGFSLSSYGVSWVRQAPGKGLEYVGFIGSGGFAYYASWAKSRFTISRDNSKNTLYLQMNSLRAEDTAVYYCARDDVGGGKSLDIWGQGTLVTVSS
VL: DIQMTQSPSSLSASVGDRVTITCQASQSISSYLSWYQQKPGKAPKLLIYSASTLASGVPSRFSGSGSGTDFTLTISSLQPEDFATYYCHQDYTSSNVDNTFGGGTKVEIKR
notes: Fab used for crystallization with human KLK5; lysines of the complex were methylated; also called Fab 9H5 Humanized
B7: 10C5 Fab (Fab, V domains shown)
VH: EVQLVESGGGLVQPGGSLRLSCAASGFSLSSYGVTWVRQAPGKGLEWIGYITSNYGVSYYASWAKSRSTISRDTSKNTVYLQMGSLRAEDMAVYYCARENPDYGYAYDAWGQGTTVTVSS
VL: AIRMTQSPSSFSASTGDRVTITCQASESISNELSWYQQKPGKAPKLLIYYASTLASGVPSRFSGSGSGTDFTLTISSLQPEDFATYYCAQGFGSSGVENVFGGGTKVEIKR
notes: Fab used for crystallization with human KLK5; lysines of the complex were methylated; also called Fab 10C5 Humanized

These binders were tested against human KLK4 (human, UniProt Q9Y5K2 31-254, limits assumed) (assay: array SPR imaging, antibody immobilized).
Experimental: (§1) An array-based SPR imaging system (Carterra™, USA) was used to epitope bin a panel of 288 monoclonal antibodies. Purified antibodies were diluted at 10 μg/ml in 10 mM sodium acetate buffer pH 4.5. Using amine coupling, antibodies were directly immobilized onto a SPR sensorprism CMD 200M chip (XanTec Bioanalytics GmbH, Germany) using a Continuous Flow Microspotter (Carterra™, USA) to create an array of 288 antibodies. For analysis, the IBIS MX96 SPRi (Carterra™, USA) was used to evaluate analytes binding to the immobilized ligands. For kinetic analyses, human, cyno and murine KLK5 were injected for 3 minutes from 0 to 300 nM at 3-fold dilution followed by a dissociation period of 10 minutes. Human KLK1, KLK4, and KLK7 were injected at a single concentration of 500 nM to ensure the specificities of the antibodies. For epitope binning against SPINK9-Fc-SRE, human KLK5 was first injected for 4 minute at 100 nM and was followed by a second 4 minute injection of SPINK9-Fc-SRE at 10 μg/ml. The surface was regenerated with 10 mM glycine pH1.5 between cycles. The experiment was performed at 25° C. in a running buffer of HBS-T buffer (0.01M HEPES pH 7.4, 0.15M NaCl, 0.05% surfactant P20). The kinetic data was processed using Scrubber 2.0 (BioLogic™ Software) and the epitope binning data was processed using Wasatch binning software tool (Carterra™, USA).

human KLK4, sequence (Q9Y5K2 31-254 limits assumed): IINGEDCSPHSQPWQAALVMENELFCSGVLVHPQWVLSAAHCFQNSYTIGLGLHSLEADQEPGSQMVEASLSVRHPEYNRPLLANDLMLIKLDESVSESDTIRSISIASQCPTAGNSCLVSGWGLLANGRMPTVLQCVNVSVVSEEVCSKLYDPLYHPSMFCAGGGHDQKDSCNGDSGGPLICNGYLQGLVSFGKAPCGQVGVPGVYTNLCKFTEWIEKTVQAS

| binding result | Binder |
| --- | --- |
| no binding (tested: 500 nM) | B1 |
| no binding (tested: 500 nM) | B2 |
| no binding (tested: 500 nM) | B3 |
| no binding (tested: 500 nM) | B4 |

The binders below were run against human KLK7 (human, UniProt P49862 30-253, limits assumed) (assay: array SPR imaging, antibody immobilized).
Experimental: as §1

human KLK7, sequence (P49862 30-253 limits assumed): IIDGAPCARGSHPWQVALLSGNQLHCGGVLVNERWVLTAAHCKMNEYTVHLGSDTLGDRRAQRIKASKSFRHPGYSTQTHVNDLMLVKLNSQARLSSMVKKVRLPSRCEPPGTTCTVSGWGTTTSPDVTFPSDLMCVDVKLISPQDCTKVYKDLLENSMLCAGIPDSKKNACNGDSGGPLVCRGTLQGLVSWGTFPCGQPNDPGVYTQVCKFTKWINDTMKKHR

| binding result | Binder |
| --- | --- |
| no binding (tested: 500 nM) | B1 |
| no binding (tested: 500 nM) | B2 |
| no binding (tested: 500 nM) | B3 |
| no binding (tested: 500 nM) | B4 |

The binders below were run against human KLK1 (human, UniProt P06870 25-262, limits assumed) (assay: array SPR imaging, antibody immobilized).
Experimental: as §1

human KLK1, sequence (P06870 25-262 limits assumed): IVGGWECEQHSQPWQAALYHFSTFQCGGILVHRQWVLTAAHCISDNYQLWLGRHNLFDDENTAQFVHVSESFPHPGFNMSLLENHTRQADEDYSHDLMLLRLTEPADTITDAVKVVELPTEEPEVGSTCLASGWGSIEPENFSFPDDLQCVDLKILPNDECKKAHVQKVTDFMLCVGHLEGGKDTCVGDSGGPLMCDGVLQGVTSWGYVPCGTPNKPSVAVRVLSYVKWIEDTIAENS

| binding result | Binder |
| --- | --- |
| no binding (tested: 500 nM) | B1 |
| no binding (tested: 500 nM) | B2 |
| no binding (tested: 500 nM) | B3 |
| no binding (tested: 500 nM) | B4 |

These binders were tested against T1, Recombinant human KLK5 residues … (assay: crystal structure of the Fab/KLK5 complex).
Experimental: Recombinant human KLK5 residues I67-S293 (SEQ ID NO:328) was expressed in a Baculovirus expression system as a C-terminal fusion of ubiquitin with an Enterokinase cleavage site engineered between ubiquitin and KLK5. Sf9 cells were coexpressed with EndoH with 1 mg/mL of Kifunensine. Protein was purified on a HiTrap™ Heparin column. The column was washed with 25 mM TRIS pH 7.5 for 5 CV (column volumes), and then eluted with 0-750 mM NaCl over a gradient of 20 CV. Resultant protein pool was then further purified over 5200 by SEC in 25 mM Tris pH 7.5, 300 mM NaCl. The Ubiquitin was then cleaved using Enterokinase, and sample further purified by SEC again. […] Fab fragments including heavy and light chains were expressed and purified as described. See Carter et al., Biotechnology 10(2), 163-167 (1992). KLK5 was then mixed with each of the Fabs separately, 10C5, 9H5, and 3-3F5, and the complex was purified by SEC in 25 mM HEPES pH 7.2, 100 mM NaCl. […] Crystal for the 10C5 and 9H5 complexes were only obtained when the lysine residues in the protein complexes were methylated. See Walter et al., Structure, 14(11), 1617-1622 (2006).

| buried surface area | Binder |
| --- | --- |
| 956 Å^2 | B5 |
| 805 Å^2 | B6 |
| ~860 Å^2 | B7 |
